Test results: patent publication US20150316552A1, “Human Notch Receptor Mutations and Their Use” (OncoMed Pharmaceuticals, Inc., priority 2011, published 2015)
“Also recorded” adds a separate entry of the source.

Key:
[1] = tested on: OMP-LU61 small cell lung cancer; assay: OMP-LU61 small cell lung cancer, sensitivity to treatment; type: in vivo; conditions: elevated NOTCH1-ICD, no known NOTCH1 mutation; FIG. 10
[2] = tested on: OMP-B40 breast tumors; assay: OMP-B40 breast tumor xenograft, tumor growth; type: in vivo, NOD/SCID mice
Description: B40 p3 tumor cells were injected subcutaneously into the left flank of 6-7 week old female NOD/SCID mice (300,000 cells/mouse). Mice were monitored weekly and tumors were allowed to grow until they were approximately 140 mm^3 (78 days after injection). Mice were randomized into five treatment groups and treated with control antibody, or different doses (0.3 mg/kg, 1 mg/kg, 3 mg/kg, 10 mg/kg) of the OMP-52M51 humanized anti-NOTCH1 antibody. The antibodies were dosed i.p. twice a week. Tumor growth was monitored by caliper measurement once a week.
Dissociated OMP-B40 p3 tumor cells were re-suspended in injection media (PBS containing 100 ng/mL VEGF and 100 ng/mL bFGF and 0.5× matrigel) and injected subcutaneously into the left flank of 6-7 week old female NOD/SCID mice (300,000 cells/mouse). Mice were monitored weekly and tumors were allowed to grow until they were approximately 140 mm^3 (78 days after injection). Mice were randomized into four treatment groups (n=10 mice/group) and treated with control antibody, anti-NOTCH1 antibody OMP-52M51, taxol or a combination of OMP-52M51 with taxol. The antibodies were dosed i.p. twice a week at 15 mg/kg and Taxol was dosed i.p. once a week at 20 mg/kg. Tumor growth was monitored by caliper measurement once a week.
As described in Example 2, three hundred thousand OMP-B40 tumor cells were injected subcutaneously and allowed to grow to a mean volume of […] At that point, 78 days after study start, mice were randomized and treatment started. Mice received either 15 mg/kg control antibody or 15 mg/kg OMP-52M51 humanized antibody twice weekly, with or without 20 mg/kg paclitaxel once weekly, all administered by IP injection. Mean±SEM, n=10 animals per group.

[3] = tested on: OMP-C63 colon cancer; assay: OMP-C63 colon cancer, sensitivity to treatment; type: in vivo; conditions: elevated NOTCH1-ICD, no known NOTCH1 mutation; FIG. 11
[4] = tested on: OMP-C11 tumor cells; assay: OMP-C11 xenograft, tumor growth; type: in vivo, mice; conditions: 15 mg/kg twice weekly IP, Day 54; H-score approximately 34
Description: Twenty thousand OMP-C11 tumor cells were resuspended in injection media composed of PBS and 0.5× matrigel and injected subcutaneously into mice. The N1.ICD IHC H-score of OMP-C11 cells is approximately 34. The OMP-C11 cells are heterozygous mutant for FBW7. Treatment was initiated 1 day after tumor cell injection and continued for the duration of the experiment. The mice received either 15 mg/kg LZ1 control antibody or OMP-52M51 anti-NOTCH1 antibody twice weekly, either as a single therapy or in combination with 7.5 mg/kg Irinotecan administered once weekly. The antibodies and irinotecan were administered by IP injection. Tumor volume is shown as Mean±SEM, n=10 animals per group. OMP-52M51 alone reduced tumor growth to 53% of the tumor growth observed in the control antibody treated group (Day 54, p=0.046).

B1: OMP-52M51: humanized anti-NOTCH1 antibody, plasmid ATCC PTA-9549; heavy chain variable region SEQ ID NO:14, light chain variable region SEQ ID NO:18 (antibody, V domains shown)
VH: QVQLVQSGAEVKKPGASVKISCKVSGYTLRGYWIEWVRQAPGKGLEWIGQILPGTGRTNYNEKFKGRVTMTADTSTDTAYMELSSLRSEDTAVYYCARFDGNYGYYAMDYWGQGTTVTVSSA
VL: SGVDSQAVVTQEPSLTVSPGGTVTLTCRSSTGAVTTSNYANWFQQKPGQAPRTLIGGTNNRAPGVPARFSGSLLGGKAALTLSGAQPEDEAEYYCALWYSNHWVFGGGTKLTVLG
modifications: 52M51-H4 heavy chain variable region amino acid sequence without putative signal sequence; 52M51-L3 light chain variable region amino acid sequence without putative signal sequence
sensitivity to treatment [1]: significant sensitivity | tumor volume in xenografted animals (in words) ([2]; 15 mg/kg antibody twice weekly, with or without 20 mg/kg paclitaxel once weekly, IP, FIG. 3B): greatly decreased tumor volume | tumor volume versus control, dose response ([2]; OMP-52M51 0.3, 1, 3, 10 mg/kg i.p. twice a week, FIG. 3A): reduction in tumor volume versus control at all doses tested; also recorded: Dose dependent activity | reduction in tumor volume versus control ([2]; antibodies 15 mg/kg i.p. twice a week, Taxol 20 mg/kg i.p. once a week, FIG. 3B): 21.8% | sensitivity to treatment ([2]; tumor with elevated NOTCH1-ICD): significant sensitivity | sensitivity to treatment [3]: significant sensitivity | tumor growth as % of control antibody treated group [4]: 53%
